We go through seven molecules from patent US20230357389A1 (Innovent, published 2023).

Positions count from the first letter of the chain named. Some results are limits rather than exact numbers.

Experiment [1] deals with T1, human CD3 complex on T cells (human, UniProt P07766 23-207; P04234 22-171; P09693 23-182; P20963 22-164).
T1 construct: whole, on cells; also called CD3 at the cellular level; Jurkat cells
Kind of experiment: flow cytometry on Jurkat cells (human CD3 complex), PE anti-human Fc secondary antibody; the EC50 table prints no unit, nM is taken from the axis Concentration of antibody (nM). The source says:
Jurkat cells were immortalized human T lymphocytes, which expressed human CD3 complex. The cell line was used to detect the binding of the antibody of invention and the cell.
For orientation: A flow cytometer gives signals particle by particle.

Experiment [2] has as its target T2, human CLDN18.2 on the cell surface (human, UniProt P56856-2 1-261).
T2 construct: whole, on cells; Stably transfected CHO-S, KATO III and DAN-G cells; NUGC-4 is a CLDN18.2-positive gastric cancer line; also called CHO-hCLDN18.2
In words: flow cytometry (FACS) titration on DAN-G-hCLDN18.2 pancreatic cancer cells.

Experiment [3] concerns the target T2, human CLDN18.2 on the cell surface. In words: flow cytometry (FACS) titration on NUGC-4 gastric cancer cells.
For experiment [4] the target is unchanged. Kind of experiment: flow cytometry (FACS) titration on CHO-hCLDN18.2 cells, PE anti-human Fc secondary antibody; the EC50 table prints no unit, nM is taken from the axis Log[Conc.(nM)]. On the procedure: (§1) Specifically, the cells to be tested (CHO-hCLDN18.2 and CHO-hCLDN18.1) obtained in Example 1 were counted and diluted to 1×10⁶ cells/ml, added to the U-shaped bottom 96-well plate at 100 μl/well, and then centrifuged at 500 g for 5 min before the cell culture medium was removed. […] The initial concentration of the antibody was 900 nM, and it was diluted three times serially, a total of 10 concentration points before leaving it on ice for 30 min, and removing the supernatant at 500 g for 5 min, and washing the cells with PBS once before adding goat anti-human Fc PE-labeled secondary antibody (Southern Biotech, J2815-5H87B) at 100 μl/well, and incubating in dark on ice for 30 min, removing the supernatant at 500 g for 5 min, and washing the cells with PBS once. 50 μl 1×PBS was used to resuspend cells and FACS was used for detection. GraphPad Prism software was used to analyze the experimental data and get FIG. 1 and FIG. 2.

Experiment [5] has the same target. In words: cell-based or functional assay.
Experiment [6] deals with T3, human CLDN18.1 on the cell surface (human, UniProt P56856 1-261).
T3 construct: whole, on cells; also called CHO-hCLDN18.1
In words: flow cytometry (FACS) titration on CHO-hCLDN18.1 cells, PE anti-human Fc secondary antibody. How it is done: as §1

Experiment [7] addresses T4, Human Claudin 18.2 (GenScrip, P50251802) (human, UniProt P56856-2 1-261, limits assumed).
T4 construct: Bought protein; also called human CLDN18.2
Kind of experiment: SPR (Biacore T200), CLDN18.2 amine-coupled to chip, antibody as analyte, 1:1 model. On the procedure:
After coupling, 1 M ethanolamine was injected to seal the remaining activation sites. The binding and dissociation between the chip surface antigen and the antibody in the mobile phase were detected by Biocore (GE Healthcare, T200) according to the manufacturer's instructions to obtain the affinity and kinetic constants. The serially diluted antibody (0-100 nM) flowed through the chip surface in order from low concentration to high concentration, with binding time of 180 s and dissociation time of 600 s. Finally, 10 mM Glycine pH 1.5 (GE Healthcare, BR-1003-54) was used to regenerate the chip. The resulting data were analyzed using the Biocore T200 analysis software and the dynamic analysis was conducted using the 1:1 combination model.
A general note: Surface plasmon resonance follows binding to a sensor surface in real time, without labels.

The term EC50 denotes the concentration that produces a half-maximal response. Higher therefore signals weaker potency. Broadly, the EC50 (read off the curve) is the concentration at which the effect is half-maximal. A lower EC50 (read off the curve) goes with an effect from little substance. In general, Kd refers to a measure of binding affinity in units of concentration. What is called koff is a measure of how fast the partners let go of each other. One may read the kon as the second-order rate constant of association.

T1 sequence (P07766 23-207, chain 1 of 4): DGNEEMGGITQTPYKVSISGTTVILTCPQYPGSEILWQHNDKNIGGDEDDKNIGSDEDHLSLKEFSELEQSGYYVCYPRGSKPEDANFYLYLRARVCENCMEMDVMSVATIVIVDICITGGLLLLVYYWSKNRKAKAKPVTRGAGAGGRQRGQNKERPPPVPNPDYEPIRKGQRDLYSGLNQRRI
T1 sequence (P04234 22-171, chain 2 of 4): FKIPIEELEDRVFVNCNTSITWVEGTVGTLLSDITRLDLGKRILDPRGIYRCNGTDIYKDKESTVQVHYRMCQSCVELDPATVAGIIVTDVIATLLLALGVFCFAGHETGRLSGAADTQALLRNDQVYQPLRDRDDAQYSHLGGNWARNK
T1 sequence (P09693 23-182, chain 3 of 4): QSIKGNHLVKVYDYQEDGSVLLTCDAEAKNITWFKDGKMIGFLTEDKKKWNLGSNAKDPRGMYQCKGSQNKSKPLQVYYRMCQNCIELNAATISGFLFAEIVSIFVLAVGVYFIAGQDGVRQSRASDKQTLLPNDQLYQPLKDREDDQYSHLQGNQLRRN
T1 sequence (P20963 22-164, chain 4 of 4): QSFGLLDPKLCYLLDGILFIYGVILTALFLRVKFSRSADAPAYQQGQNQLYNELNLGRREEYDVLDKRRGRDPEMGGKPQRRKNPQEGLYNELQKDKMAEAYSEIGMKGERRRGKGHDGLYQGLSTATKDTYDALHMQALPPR

B1: anti-CD3 monoclonal antibody HzSP34.87 (antibody, human IgG1, lambda, L234A L235A, V domains shown)
VH: EVQLVESGGGLVQPGGSLKLSCAASGFTFNTYAMNWVRQASGKGLEWVGRIRSKYNNYATYYADSVKDRFTISRDDSKSTLYLQMNSLKTEDTAVYYCARHYNFGQSYVSWFAYWGQGTTVTVSS
VL: QAVVTQEPSLTVSPGGTVTLTCRSSTGAVTTSNYANWVQQKPGQAPRGLIGGTNKRAPGVPARFSGSLLGDKAALTLLGAQPEDEAEYYCALWYSNLWVFGQGTKLTVLG
In experiment [1], B1 registered an EC50 of 3.42 nM.

B2: anti-CD3 monoclonal antibody HzSP34.97 (antibody, human IgG1, lambda, L234A L235A, V domains shown)
VH: B1 VH with Y55A, N56G, N57G, Y102G
VL: B1 VL
The molecule B2 returned an EC50 in experiment [1] of 3 nM.

B3: control antibody zolbetuximab (antibody, human IgG1, kappa, V domains shown)
VH: QVQLQQPGAELVRPGASVKLSCKASGYTFTSYWINWVKQRPGQGLEWIGNIYPSDSYTNYNQKFKDKATLTVDKSSSTAYMQLSSPTSEDSAVYYCTRSWRGNSFDYWGQGTTLTVSS
VL: DIVMTQSPSSLTVTAGEKVTMSCKSSQSLLNSGNQKNYLTWYQQKPGQPPKLLIYWASTRESGVPDRFTGSGSGTDFTLTISSVQAEDLAVYYCQNDYSYPFTFGSGTKLEIKR
notes: also called Zmab; positive control antibody Zmab
As for B3, the “EC50 (read off the curve)” value was approximately 2 nM in experiment [2] and approximately 3 nM in experiment [3]. In addition, in experiment [4], the EC50 worked out at 3.31 nM.

B4: bispecific antibody 030 (CLDN18.2 x CD3) (bispecific antibody, human IgG1, kappa, lambda, L234A L235A)
heavy 1: not shown
light 1: not shown
heavy 2: not shown
light 2: QAVVTQEPSLTVSPGGTVTLTCRSSTGAVTTSNYANWVQQKPGQAPRGLIGGTNKRAPGVPARFSGSLLGDKAALTLLGAQPEDEAEYYCALWYSNLWVFGQGTKLTVLGQPKAAPSVTLFPPSSEELQANKATLVCLISDFYPGAVTVAWKADSSPVKAGVETTTPSKQSNNKYAASSYLSLTPEQWKSHRSYSCQVTHEGSTVEKTVAPTECS
In the case of B4, in experiment [5], the “EC50 of PBMC-mediated killing of gastric cancer cell NUGC-4” value was less than 0.001 nM and the “EC50 of PBMC-mediated killing of pancreatic cancer cell DAN-G-hCLDN18.2” value is less than 0.1 pM.

B5: bispecific antibody 033 (CLDN18.2 x CD3) (bispecific antibody, human IgG1, kappa, lambda, L234A L235A)
heavy 1: not shown
light 1: not shown
heavy 2: not shown
light 2: B4 light 2
As to B5, the “killing activity on NUGC-4 and DAN-G-hCLDN18.2 relative to 030 and 032” value in experiment [5] is ~1000 times lower than 030 and 032.

B6: bispecific antibody 032 (CLDN18.2 x CD3) (bispecific antibody, human IgG1, kappa, lambda, L234A L235A)
heavy 1: not shown
light 1: not shown
heavy 2: not shown
light 2: B4 light 2
With B6, in experiment [5], the “EC50 of PBMC-mediated killing of gastric cancer cell NUGC-4” value is less than 0.001 nM and the “EC50 of PBMC-mediated killing of pancreatic cancer cell DAN-G-hCLDN18.2” value was less than 0.1 pM.

B7: anti-CLDN18.2 monoclonal antibody HB37A6 (antibody, human IgG1, kappa, V domains shown)
VH: EVQLLDSGGGLVQPGGSLRLSCAASGFTFSSYVMSWVRQAPGKGLNWVSTISHSGGSTYYADSVKGRFTISRDNSKNTLYLQMNSLRAEDTAVYYCAIDAPYYDILTGYRYWGQGTLVTVSS
VL: not shown
notes: also called whole human antibody HB37A6
As to B7, the binding result in experiment [6] is “no binding”. Also, the “EC50 (read off the curve)” value in experiment [3] is approximately 1 nM. In addition, in experiment [7], the Kd is 0.72 nM, the koff is 0.000306 s⁻¹ and the kon was 425000 M⁻¹ s⁻¹. Further, the EC50 in experiment [4] came to 5.51 nM.
